In patent US20070031511A1, “Method of treatment” (priority 2003, published 2007) one finds Kd data, which are given here for 1 molecule.

This assay is described as follows: Quenching of peptide tryptophan fluorescence by ferric ions (stoichiometry, apparent Kd). Format: binding. The conditions noted are these: 10 mM sodium acetate pH 4.0, 100 mM NaCl, 0.005% Tween 20; mean ± S.E.; read-out: Kd (μM), apparent dissociation constant for ferric ions. On the procedure:
The tryptophan fluorescence of peptide solutions was measured in 3 mL quartz cuvettes thermostated at […], with a Spex Fluorolog-2 spectrofluorimeter (Spex Industries, Edison, N.J.), with the excitation and emission wavelengths set at 290 and 345 nm, respectively. The quenching of tryptophan fluorescence induced by the binding of metal ions was used to calculate the fraction of binding sites occupied, fa: fa=(yf−y)/(yf−yb) where y is the fluorescence signal at a given concentration of metal ions and yb and yf are the signals when the binding sites are fully occupied and unoccupied, respectively (Winzor et al, 1995). […]
The tryptophan fluorescence of progastrin6-80, glycine-extended gastrin17 and related peptides was measured in the presence of increasing concentrations of ferric ions in 10 mM sodium acetate, pH 4.0, 100 mM NaCl, 0.005% Tween 20. […]
The tryptophan fluorescence of amidated gastrin17 and related peptides was measured in the presence of increasing concentrations of ferric ions at pH 4.0 (8). […]

B1: Progastrin: recombinant human progastrin6-80 (protein, listed as Homo sapiens)
chain: SQQPDAPLGTGANRDLELPWLEQQGPASHHRRQLGPQGPPHLVADPSKKQGPWLEEEEEAYGWMDFGRRSAEDEN
With B1, the Kd was found to be 2.15 ± 0.14 µM.
